Data set [1] can be described thus: 3H-PGE2 ELISA (PGE2 binding affinity). How it is done: Alternatively, prostaglandin binding screen for antibodies or DVD-Ig molecules can be determined using a ^3H-PGE2 ELISA. Plates were coated at 50 μl/well with 5 μg/ml of goat anti-human IgG (Fc) (Thermo Scientific #31170, Hudson, N.H.) or goat anti-mouse IgG (Fc) (Thermo Scientific #31125, Hudson, N.H.) in PBS and incubated overnight at 4° C. The following day plates were flicked and blotted dry. Plates were then blocked with 200 μL/well of Superblock (Thermo Scientific #37515, Hudson, N.H.), for 1 hour at room temperature. Plates were flicked and blotted dry. Monoclonal antibodies were diluted to 0.04 μg/ml in PBST (Abbott Bioresearch Center, Worcester, Mass.)/10% Superblock and 50 uL of each antibody or DVD-Ig was added to each well of the pre-blocked ELISA plate at 2 ng/well and incubated for 1 hour at room temperature. Wells were washed 3 times with PBS+0.1% Tween-20. A serial 3 fold titration of ^3H-PGE2 (Perkin Elmer #NET-428, Waltham, Mass.) was prepared in PBST+10% Superblock. Fifty microliters of the ^3H-PGE2 solution was then added to each well of the plate and incubated for 1 hour at room temperature. Wells were washed 6 times with PBST+10% Superblock and 50 μL of scintillation fluid (Perkin Elmer #6013621, Waltham, Mass.) added to each well. Plates were read using the TopCount reader (Perkin Elmer, Waltham, Mass.) with a 5 minutes count delay. EC50 number was determined using GraphPad Prism 5 (GraphPad Software, La Jolla, Calif.).
In general terms: In an ELISA, binding on a coated surface is turned into a signal by an enzyme label.

For data set [2], the system named is PGE2 / human EP4 receptor in HEK293 Gα16 cells. The experiment in a line: EP4 bioassay (Ca++ flux, neutralization of PGE2). The data set is classed as cell-based. Summed up: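 Ca++ flux (FLIPR) in HEK293 Gα16 cells stably expressing human EP4, loaded with Ca++-sensitive dye for 90 min. PGE2, alone or pre-incubated with anti-PGE2 antibody, DVD-Ig or isotype control, was added in FLIPR buffer (HBSS, 20 mM HEPES, 0.1% BSA, 2.5 mM probenecid). EC50 derived from PGE2 dose-response.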

For data set [3], the system named is C57.BL/6 mice, carrageenan-induced footpad edema. Description: Carrageenan-induced footpad edema model. It counts as in vivo, mouse. To be noted: 10 mg/kg. How it is done: Carrageenan-Induced Footpad Edema is an acute rodent model of innate immune function. Intradermal (ID) injection of an inflammatory agent causes a rapid influx of neutrophils and fluid edema, which peaks at approximately 4 hours, followed by an influx of macrophages and monocytes, which peaks at approximately 48 hours. C57.BL/6 mice (8-10-week-old, Jackson Laboratories, Bar Harbor, Me.) were injected ID in the rear footpad with 30 μL of either PBS (left) or λ-carrageenen (Sigma Aldrich, St. Louis, Mo.) in PBS (right) at a concentration of 5.0 mg/mL (150 μg/mouse). […] Significant difference for paw thickness was determined by comparing mean paw swelling for each treatment group to vehicle in a Student's two-tailed t-test.
The endpoint measured was the difference in paw swelling (edema) between right and left paws 4 hours after treatment.
(In general: In the carrageenan paw model, swelling and tenderness develop within hours.)

In data set [4] the test system is human TNFα transgenic B6.Cg(SJL)-Tg(TNF) N21+ mice. The experiment in a line: Human TNFα transgenic induced arthritis model. The data set is classed as in vivo, mouse. The conditions noted are these: PGE2 blockade. How it is done:
Human TNFα transgenic B6.Cg(SJL)-Tg(TNF) N21+ mice (40 male and 40 females) (Taconic, Hudson, N.Y.) at 4 weeks age were divided into 10 groups of 8 mice (4 male and 4 females/group). Each week, starting from week 5 until week 12 of age the morphology of the rear ankle joints of the mice were evaluated and scored for signs and symptoms of arthritis. Arthritic scores were assigned as follows. • 0=no arthritis (normal appearance and flexion) • 1=mild arthritis (joint distortion) • 2=moderate arthritis (swelling, joint deformation); and • 3=severe arthritis (ankylosis detected on flexion and severely impaired movement)
Animals were randomized to achieve approximately similar mean arthritic score (MAS) for all groups at week 9 at first signs of symptoms. Animals were then treated i.p. twice a week starting from week 10 of age until week 12 of age. Mice in group 1 served as untreated control were administered PBS.

The nature of a further data set: Dynamic light scattering. The data set is classed as physicochemical. The conditions noted are these: 2 mg/mL in PBS. How it is done:
Samples were centrifuged at 10,000 RPM for 10 minutes before measured on DynaPro-801 Dynamic light scattering system.

Another data set deals with desired target antigen. The experiment in a line: Direct Bind ELISA of parent antibodies and DVD-Ig constructs. The data set is classed as binding. To be noted: C-terminal variable domain NGF, read-out: Direct Bind ELISA C-terminal VD EC50. How it is done:
Enzyme Linked Immunosorbent Assays to screen for antibodies that bind a desired target antigen were performed as follows. […] Plates were washed four times with PBS containing 0.02% Tween 20. Plates were blocked by the addition of 300 μL/well blocking solution (non-fat dry milk powder, various retail suppliers, diluted to 2% in PBS) for ½ hour at room temperature. Plates were washed four times after blocking with PBS containing 0.02% Tween 20.
Wells were washed four times with PBS containing 0.02% Tween 20.
One hundred microliters of antibody or DVD-Ig preparations diluted in blocking solution as described above was added to the desired target antigen plate or desired target antigen/FC fusion plate or the anti-polyHistidine antibody/His tagged desired target antigen plate prepared as described above and incubated for 1 hour at room temperature.
Plates were washed 4 times with PBS containing 0.02% Tween 20.
One hundred microliters of enhanced TMB solution (Neogen Corp. #308177, K Blue, Lexington, Ky.) was added to each well and incubated for 10 minutes at room temperature. The reaction was stopped by the addition of 50 μL 1N sulphuric acid. Plates were read spectrophotometrically at a wavelength of 450 nm.

A short description of data set [5]: PGE2-biotinamide ELISA (PGE2 binding). The conditions noted are these: PGE2 VD in N-terminal position, read-out: Direct Bind ELISA N-terminal VD EC50. In outline:
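Antibody or DVD-Ig (1 µg/ml) captured on anti-host Fc IgG-coated plates for 1 h at room temperature, then titrated with PGE2-biotinamide serially diluted from 30 nM for 1 h. Binding detected with streptavidin-polyHRP and TMB, absorbance read at 450 nm; EC50 from the titration curve.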

Experimental findings from patent US8822645B2, “Prostaglandin E2 dual variable domain immunoglobulins and uses thereof” (AbbVie Inc., priority 2008, dated 2014) are described below.

B1: 2B5-8.0: murine anti-PGE2 antibody clone, VH SEQ ID 82, VL SEQ ID 83 (antibody, V domains shown)
VH: QVQLQQSGPELVRPGSSVKISCKASGYTFTKYWLGWVKQRPGHGLEWIGDIYPGYDYTHYNEKFKDKATLTVDTSSSTAYMQLSSLTSEDSAIYYCARSDGSSTYWGQGTLVTVSA
VL: DVLMTQTPLSLPVSLGDQASISCTSSQNIVHSNGNTYLEWYLQRPGQSPKLLIYKVSNRFSGVPDRFSGSGSGTVFTLKISRVEAEDLGVYYCFQVSHVPYTFGGGTKLEIKR
By Kd is commonly meant the free concentration of one partner at which half of the binding sites on the other are occupied at equilibrium, for simple one-to-one binding. Read a low Kd as tighter binding. As usually defined, the IC50 is the concentration needed to halve the response being measured. A low value points to inhibition by little substance. In general, % Inhibition refers to the drop in the measured response relative to a control, in per cent. A high value points to strong suppression. B1 registered a Kd in data set [1] of 0.334 nM. Further, the IC50 in data set [2] (EP4 assay) was determined as 0.02 nM. Besides, the “maximal inhibition of paw swelling” value in data set [3] (IP 18 hours prior to carrageenan, 4 hours) is 40-50%. Further, the “% Inhibition” value in data set [3] (i.p.) amounted to 38 ± 4.6%. In addition, in data set [3] (i.p., 4 hours post carrageenan), the “Δ Paw Swelling” value is on record as 0.529 ± 0.04 mm. Further, in data set [4], the “effect on disease progression” value was “no significant effect”.

B2: Hu2B5.7: humanized anti-PGE2 antibody, VH SEQ ID 74, VL SEQ ID 75 (antibody, V domains shown)
VH: EVQLVQSGAEVKKPGASVKVSCKASGYTFTKYWLGWVRQAPGQGLEWMGDIYPGYDYTHYNEKFKDRVTLTTDTSTSTAYMELRSLRSDDTAVYYCARSDGSSTYWGQGTLVTVSS
VL: DVLMTQTPLSLPVTPGEPASISCTSSQNIVHSNGNTYLEWYLQKPGQSPQLLIYKVSNRFSGVPDRFSGSGSGTDFTLKISRVEAEDVGVYYCFQVSHVPYTFGGGTKVEIKR
As for B2, in the data set “Dynamic light scattering”, the hydrodynamic radius is 5.36 nm.

B3: DVD163: DVD-Ig construct listed in Table 4 (antibody)
VH: EVQLVQSGAEVKKPGASVKVSCKASGYTFTKYWLGWVRQAPGQGLEWMGDIYPGYDYTHYNEKFKDRVTLTTDTSTSTAYMELRSLRSDDTAVYYCARSDGSSTYWGQGTLVTVSSASTKGPQVQLQESGPGLVKPSETLSLTCTVSGFSLIGYDLNWIRQPPGKGLEWIGIIWGDGTTDYNSAVKSRVTISKDTSKNQFSLKLSSVTAADTAVYYCARGGYWYATSYYFDYWGQGTLVTVSS
VL: DVLMTQTPLSLPVTPGEPASISCTSSQNIVHSNGNTYLEWYLQKPGQSPQLLIYKVSNRFSGVPDRFSGSGSGTDFTLKISRVEAEDVGVYYCFQVSHVPYTFGGGTKVEIKRTVAAPDIQMTQSPSSLSASVGDRVTITCRASQSISNNLNWYQQKPGKAPKLLIYYTSRFHSGVPSRFSGSGSGTDFTFTISSLQPEDIATYYCQQEHTLPYTFGQGTKLEIKR
The term EC50 denotes the concentration at which the effect is half-maximal. With B3, the EC50 is 0.245 nM in data set [2] (PGE2 VD in N-terminal position, EP4 bioassay, Ca++ flux, read-out: N-terminal VD PGE2 Neutralization EC50); over 10000 nM with desired target antigen; 0.71 nM in data set [5].
